Tests used:
Details in all cases: chain copies: 4 (inferred)
[1] = biological target: T1, GluA2Qflip AMPA receptor subunit (Rattus norvegicus, UniProt P19491-2 P19491-2:22-883); test: competition; unliganded closed-channel conformation; homologous competition with radiolabeled AF44
[2] = biological target: T1, GluA2Qflip AMPA receptor subunit; test: competition; open-channel conformation; homologous competition with radiolabeled AF44
[3] = biological target: T1, GluA2Qflip AMPA receptor subunit; test: competition; open-channel conformation; homologous competition with radiolabeled AF42
[4] = biological target: T1, GluA2Qflip AMPA receptor subunit; test: competition; closed-channel conformation; homologous competition with radiolabeled AF42

T1 sequence (P19491 other isoform, or with tags, fused parts or gaps): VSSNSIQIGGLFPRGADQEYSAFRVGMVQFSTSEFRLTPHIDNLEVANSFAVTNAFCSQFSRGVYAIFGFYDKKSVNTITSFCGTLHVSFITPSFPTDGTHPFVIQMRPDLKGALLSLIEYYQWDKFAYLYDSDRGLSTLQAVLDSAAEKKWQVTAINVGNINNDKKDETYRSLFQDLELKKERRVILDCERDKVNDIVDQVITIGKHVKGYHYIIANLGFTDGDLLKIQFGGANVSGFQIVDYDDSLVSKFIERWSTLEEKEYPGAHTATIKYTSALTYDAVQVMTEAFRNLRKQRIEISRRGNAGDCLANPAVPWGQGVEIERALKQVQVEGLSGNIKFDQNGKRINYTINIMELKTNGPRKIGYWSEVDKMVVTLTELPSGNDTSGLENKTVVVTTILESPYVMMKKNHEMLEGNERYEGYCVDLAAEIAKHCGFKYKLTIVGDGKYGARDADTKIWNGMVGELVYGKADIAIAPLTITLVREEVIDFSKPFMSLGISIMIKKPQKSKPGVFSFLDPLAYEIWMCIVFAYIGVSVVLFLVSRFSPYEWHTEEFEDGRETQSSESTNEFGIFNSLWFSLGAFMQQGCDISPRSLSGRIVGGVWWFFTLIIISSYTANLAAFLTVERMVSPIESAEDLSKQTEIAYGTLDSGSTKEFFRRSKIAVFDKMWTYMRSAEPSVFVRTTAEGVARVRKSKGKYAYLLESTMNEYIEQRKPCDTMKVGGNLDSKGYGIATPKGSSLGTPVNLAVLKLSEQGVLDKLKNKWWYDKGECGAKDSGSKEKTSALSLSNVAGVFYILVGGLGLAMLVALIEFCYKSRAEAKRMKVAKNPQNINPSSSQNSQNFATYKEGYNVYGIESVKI

Binder: GGGAGAAUUCAACUGCCACGGAUAAUAGCCAAUACUACAACCGU (ssRNA) [AF44 (A22)]
- Kd [1]: 44 nM
- Kd [2]: 48 nM

Binder: GGGAACGGUGCCAGUCCGAAACGGAUCGUUAGAGCAUCAGUA (ssRNA) [AF42]
- Kd [3]: 44 nM
- Kd [4]: 57 nM

— patent publication US20130289100 (The Research Foundation for the State University of New York, published 2013)
